T1: activated clotting factor VIII (fVIIIa), P00451
T1 chain: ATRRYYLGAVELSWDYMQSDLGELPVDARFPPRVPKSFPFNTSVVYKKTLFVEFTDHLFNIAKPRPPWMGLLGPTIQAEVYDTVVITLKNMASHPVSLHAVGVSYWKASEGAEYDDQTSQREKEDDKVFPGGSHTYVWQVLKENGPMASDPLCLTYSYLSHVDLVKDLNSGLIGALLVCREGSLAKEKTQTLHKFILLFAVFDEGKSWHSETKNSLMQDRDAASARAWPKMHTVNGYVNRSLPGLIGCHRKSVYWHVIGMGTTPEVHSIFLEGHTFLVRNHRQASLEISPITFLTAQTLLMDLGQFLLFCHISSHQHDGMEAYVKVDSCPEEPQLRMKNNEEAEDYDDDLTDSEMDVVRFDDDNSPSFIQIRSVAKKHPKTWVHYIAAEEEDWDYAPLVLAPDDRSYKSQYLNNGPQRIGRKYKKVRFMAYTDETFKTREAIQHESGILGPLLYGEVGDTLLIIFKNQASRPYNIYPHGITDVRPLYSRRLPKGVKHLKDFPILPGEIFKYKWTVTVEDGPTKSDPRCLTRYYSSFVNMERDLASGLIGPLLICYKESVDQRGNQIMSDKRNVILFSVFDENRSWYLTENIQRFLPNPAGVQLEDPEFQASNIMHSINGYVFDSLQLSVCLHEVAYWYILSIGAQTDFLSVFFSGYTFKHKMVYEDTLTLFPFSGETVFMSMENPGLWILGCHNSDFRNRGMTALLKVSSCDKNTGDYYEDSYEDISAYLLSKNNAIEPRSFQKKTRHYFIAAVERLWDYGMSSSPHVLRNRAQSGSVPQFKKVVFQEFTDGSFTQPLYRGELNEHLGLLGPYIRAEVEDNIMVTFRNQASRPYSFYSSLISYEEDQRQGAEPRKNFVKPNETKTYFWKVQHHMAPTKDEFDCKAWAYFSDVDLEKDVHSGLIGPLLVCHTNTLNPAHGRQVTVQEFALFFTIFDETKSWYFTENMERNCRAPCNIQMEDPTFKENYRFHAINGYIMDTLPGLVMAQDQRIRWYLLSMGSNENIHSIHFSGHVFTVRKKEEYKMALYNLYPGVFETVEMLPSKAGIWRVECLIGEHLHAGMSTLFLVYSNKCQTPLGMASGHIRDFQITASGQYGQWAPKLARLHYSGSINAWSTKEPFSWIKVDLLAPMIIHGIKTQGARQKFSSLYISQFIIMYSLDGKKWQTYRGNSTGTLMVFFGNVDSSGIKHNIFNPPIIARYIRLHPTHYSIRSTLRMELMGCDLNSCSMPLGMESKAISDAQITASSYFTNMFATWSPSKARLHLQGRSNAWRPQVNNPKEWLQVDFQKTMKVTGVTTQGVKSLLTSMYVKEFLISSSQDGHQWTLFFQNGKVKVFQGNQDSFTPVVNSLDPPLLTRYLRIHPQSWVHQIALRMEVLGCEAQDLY

B1: An96 fIX (ancestral sequence 96 factor IX) (protein)
chain: YNSGKLEEFVRGNLERECIEEKCSFEEAREVFENTEKTTEFWKQYVDGDQCESNPCLNGGSCKDDINSYECWCRFGFEGKNCELDATCSIKNGRCKQFCKKSADNKVVCSCTEGYRLAEDQKSCEPAVPFPCGRVSVSHTSKKLTRAETIFSNMDYENSTEAETILDNVTQSTQSFNDFTRVVGGENAKPGQFPWQVLLNGKIDAFCGGSIINEKWVVTAAHCIEPGVKITVVAGEHNIEKTEPTEQKRNVIRVIPHHNYNATINKYSHDIALLELDKPLTLNSYVTPICIANREYTNIFLKFGSGYVSGWGRVFNRGRSASILQYLRVPLVDRATCLRSTKFTIYNNMFCAGYHEGGKDSCQGDSGGPHVTEVEGTSFLTGIISWGEECAMKGKYGIYTKVSRYVNWIKEKTKLT
B2: fIX optimized sequence Beta (no Padua) (protein)
chain: YNSGKLEEFVQGNLERECMEEKCSFEEAREVFENTERTTEFWKQYVDGDQCESNPCLNGGSCKDDINSYECWCPFGFEGKNCELDATCNIKNGRCEQFCKNSADNKVVCSCTEGYRLAENQKSCEPAVPFPCGRVSVSQTSKLTRAETVFPDVDYVNSTEAETILDNITQSTQSFNDFTRVVGGEDAKPGQFPWQVVLNGKVDAFCGGSIVNEKWIVTAAHCVETGVKITVVAGEHNIEETEHTEQKRNVIRIIPHHNYNAAINKYNHDIALLELDEPLVLNSYVTPICIANKEYTNIFLKFGSGYVSGWGRVFHRGRSASVLQYLRVPLVDRATCLRSTKFTIYNNMFCAGFHEGGRDSCQGDSGGPHVTEVEGTSFLTGIISWGEECAMKGKYGIYTKVSRYVNWIKEKTKLT
B3: fIX optimized sequence Beta (with Padua) (protein)
chain: YNSGKLEEFVQGNLERECMEEKCSFEEAREVFENTERTTEFWKQYVDGDQCESNPCLNGGSCKDDINSYECWCPFGFEGKNCELDATCNIKNGRCEQFCKNSADNKVVCSCTEGYRLAENQKSCEPAVPFPCGRVSVSQTSKLTRAETVFPDVDYVNSTEAETILDNITQSTQSFNDFTRVVGGEDAKPGQFPWQVVLNGKVDAFCGGSIVNEKWIVTAAHCVETGVKITVVAGEHNIEETEHTEQKRNVIRIIPHHNYNAAINKYNHDIALLELDEPLVLNSYVTPICIANKEYTNIFLKFGSGYVSGWGRVFHRGRSASVLQYLRVPLVDRATCLLSTKFTIYNNMFCAGFHEGGRDSCQGDSGGPHVTEVEGTSFLTGIISWGEECAMKGKYGIYTKVSRYVNWIKEKTKLT
B4: fIX optimized sequence Gamma (no Padua) (protein)
chain: YNSGKLEEFVQGNLERECMEEKCSFEEAREVFENTERTTEFWKQYVDGDQCESNPCLNGGSCKDDINSYECWCPFGFEGKNCELDATCNIKNGRCEQFCKNSADNKVVCSCTEGYRLAENQKSCEPAVPFPCGRVSVSQTSKLTRAETVFPDVDYVNSTEAETILDNITQSTQSFNDFTRVVGGEDAKPGQFPWQVVLNGKVDAFCGGSIVNEKWIVTAAHCVETGVKITVVAGEHNIEETEHTEQKRNVIRIIPHHNYNAAINKYNHDIALLELDKPLVLNSYVTPICIANKEYTNIFLKFGSGYVSGWGRVFHRGRSASVLQYLRVPLVDRATCLRSTKFTIYNNMFCAGFHEGGRDSCQGDSGGPHVTEVEGTSFLTGIISWGEECAMKGKYGIYTKVSRYVNWIKEKTKLT
B5: fIX optimized sequence Delta (no Padua) (protein)
chain: YNSGKLEEFVQGNLERECMEEKCSFEEAREVFENTERTTEFWKQYVDGDQCESNPCLNGGSCKDDINSYECWCPFGFEGKNCELDATCNIKNGRCEQFCKNSADNKVVCSCTEGYRLAENQKSCEPAVPFPCGRVSVSQTSKLTRAETVFPDVDYVNSTEAETILDNITQSTQSFNDFTRVVGGEDAKPGQFPWQVVLNGKVDAFCGGSIVNEKWIVTAAHCVETGVKITVVAGEHNIEETEHTEQKRNVIRIIPHHNYNAAINKYNHDIALLELDKPLTLNSYVTPICIANREYTNIFLKFGSGYVSGWGRVFHRGRSASVLQYLRVPLVDRATCLRSTKFTIYNNMFCAGFHEGGRDSCQGDSGGPHVTEVEGTSFLTGIISWGEECAMKGKYGIYTKVSRYVNWIKEKTKLT
B6: fIX optimized sequence Gamma (with Padua) (protein)
chain: YNSGKLEEFVQGNLERECMEEKCSFEEAREVFENTERTTEFWKQYVDGDQCESNPCLNGGSCKDDINSYECWCPFGFEGKNCELDATCNIKNGRCEQFCKNSADNKVVCSCTEGYRLAENQKSCEPAVPFPCGRVSVSQTSKLTRAETVFPDVDYVNSTEAETILDNITQSTQSFNDFTRVVGGEDAKPGQFPWQVVLNGKVDAFCGGSIVNEKWIVTAAHCVETGVKITVVAGEHNIEETEHTEQKRNVIRIIPHHNYNAAINKYNHDIALLELDKPLVLNSYVTPICIANKEYTNIFLKFGSGYVSGWGRVFHRGRSASVLQYLRVPLVDRATCLLSTKFTIYNNMFCAGFHEGGRDSCQGDSGGPHVTEVEGTSFLTGIISWGEECAMKGKYGIYTKVSRYVNWIKEKTKLT

Biological target: T1, activated clotting factor VIII …

fIX activity (one-stage APTT-dependent coagulation assay), exhibits higher fIX activity:
B1, B2, B3, B4, B5, B6

From patent US20230374484
